Measured values from paper PMC6834915.

Target: CdiI^Kp342 immunity protein (untagged) (Klebsiella pneumoniae 342)
Assay: crystal structure

CdiI^Kp342 immunity protein (untagged) (natural protein)
stoichiometry N: 2
